One block for each binder: values may come before it.
Experiments:
Experiment in all cases: holdup assay
Design in all cases: key: below the threshold = too weak to quantify, mostly under pKd 3.1 to 4
Inadl_1, Q8NI35 = target: Inadl_1, Q8NI35
ARHGEF12, Q9NZN5-2 = target: ARHGEF12, Q9NZN5-2
DLG3_3, Q92796 = target: T1, DLG3_3, Q92796
T1 sequence (Q92796 374-475, limits assumed, looked up): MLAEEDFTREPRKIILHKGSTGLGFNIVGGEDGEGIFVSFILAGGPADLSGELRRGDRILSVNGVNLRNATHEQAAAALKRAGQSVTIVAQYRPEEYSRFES

MPP7, Q5T2T1 = target: T2, MPP7, Q5T2T1
T2 sequence (Q5T2T1 134-230, limits assumed, looked up): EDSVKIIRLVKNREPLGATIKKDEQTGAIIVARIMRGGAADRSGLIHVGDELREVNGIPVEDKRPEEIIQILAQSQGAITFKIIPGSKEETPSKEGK

ARHGEF11, O15085 = target: T3, ARHGEF11, O15085
T3 sequence (O15085 42-136, limits assumed, looked up): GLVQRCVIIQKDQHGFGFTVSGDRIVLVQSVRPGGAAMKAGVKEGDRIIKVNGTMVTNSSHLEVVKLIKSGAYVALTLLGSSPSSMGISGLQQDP

LRRC7, Q96NW7 = target: T4, LRRC7, Q96NW7
T4 sequence (Q96NW7 1440-1537, limits assumed, looked up): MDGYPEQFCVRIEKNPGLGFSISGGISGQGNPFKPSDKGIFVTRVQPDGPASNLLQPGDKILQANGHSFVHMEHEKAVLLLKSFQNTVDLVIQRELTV

GRIP2_6, Q9C0E4 = target: GRIP2_6, Q9C0E4
FRMPD2_3, Q68DX3 = target: FRMPD2_3, Q68DX3
MPDZ_5, O75970 = target: T5, MPDZ_5, O75970
T5 sequence (O75970 695-796, limits assumed, looked up): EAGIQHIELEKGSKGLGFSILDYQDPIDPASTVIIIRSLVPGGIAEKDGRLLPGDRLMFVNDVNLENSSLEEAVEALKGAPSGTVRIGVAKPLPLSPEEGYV

TJP1_3, Q07157 = target: TJP1_3, Q07157
RADIL, Q96JH8 = target: T6, RADIL, Q96JH8
T6 sequence (Q96JH8 971-1071, limits assumed, looked up): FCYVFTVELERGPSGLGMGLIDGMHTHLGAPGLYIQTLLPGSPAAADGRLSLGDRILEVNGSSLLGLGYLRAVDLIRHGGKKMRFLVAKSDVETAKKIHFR

Inadl_6, Q8NI35 = target: Inadl_6, Q8NI35
DLG3_2, Q92796 = target: T7, DLG3_2, Q92796
T7 sequence (Q92796 221-321, limits assumed, looked up): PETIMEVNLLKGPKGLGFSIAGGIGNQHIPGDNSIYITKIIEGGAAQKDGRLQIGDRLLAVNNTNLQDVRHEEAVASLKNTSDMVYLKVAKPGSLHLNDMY

HTRA1, Q92743 = target: HTRA1, Q92743
MAGI2_2, Q86UL8 = target: MAGI2_2, Q86UL8
SNX27, Q96L92 = target: SNX27, Q96L92
DFNB31_1, Q9P202 = target: T8, DFNB31_1, Q9P202
T8 sequence (Q9P202 135-233, limits assumed, looked up): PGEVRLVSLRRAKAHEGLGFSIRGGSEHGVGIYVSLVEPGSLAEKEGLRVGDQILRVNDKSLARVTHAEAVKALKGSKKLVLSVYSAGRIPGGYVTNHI

GRIP2_5, Q9C0E4 = target: GRIP2_5, Q9C0E4
CARD11, Q9BXL7 = target: T9, CARD11, Q9BXL7
T9 sequence (Q9BXL7 662-765, limits assumed, looked up): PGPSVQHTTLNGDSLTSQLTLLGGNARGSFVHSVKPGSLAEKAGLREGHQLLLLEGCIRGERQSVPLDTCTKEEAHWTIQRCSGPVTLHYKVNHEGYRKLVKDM

RHPN1, Q8TCX5 = target: T10, RHPN1, Q8TCX5
T10 sequence (Q8TCX5 508-602, limits assumed, looked up): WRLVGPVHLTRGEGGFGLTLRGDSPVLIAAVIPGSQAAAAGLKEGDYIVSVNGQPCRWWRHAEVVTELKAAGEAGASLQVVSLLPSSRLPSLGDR

GRIP1_3, Q9Y3R0 = target: T11, GRIP1_3, Q9Y3R0
T11 sequence (Q9Y3R0 247-346, limits assumed, looked up): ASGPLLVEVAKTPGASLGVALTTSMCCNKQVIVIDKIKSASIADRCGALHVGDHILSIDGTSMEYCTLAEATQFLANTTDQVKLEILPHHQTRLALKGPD

NHERF4_2, Q86UT5 = target: NHERF4_2, Q86UT5
SYNJ2BP, P57105 = target: T12, SYNJ2BP, P57105
T12 sequence (P57105 8-110, limits assumed, looked up): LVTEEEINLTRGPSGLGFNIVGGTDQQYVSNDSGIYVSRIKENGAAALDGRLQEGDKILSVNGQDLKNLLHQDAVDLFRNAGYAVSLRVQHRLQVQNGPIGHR

SIPA1L2, Q9P2F8 = target: T13, SIPA1L2, Q9P2F8
T13 sequence (Q9P2F8 945-1036, limits assumed, looked up): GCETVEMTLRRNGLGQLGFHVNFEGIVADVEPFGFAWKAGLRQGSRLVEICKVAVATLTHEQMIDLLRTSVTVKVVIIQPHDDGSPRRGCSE

[1] = plain residues with an end cap or a label only (N-terminal biotin on a linker: ado-ado)
[2] = plain residues with an end cap or a label only (N-terminal biotin on a linker: ahx)

Chain of Inadl_6, Q8NI35 (Q8NI35 1058-1167): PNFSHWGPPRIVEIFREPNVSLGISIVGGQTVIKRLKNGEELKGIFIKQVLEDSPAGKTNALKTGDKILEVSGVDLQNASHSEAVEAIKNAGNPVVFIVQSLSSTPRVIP
Chain of GRIP2_5, Q9C0E4 (Q9C0E4 544-642): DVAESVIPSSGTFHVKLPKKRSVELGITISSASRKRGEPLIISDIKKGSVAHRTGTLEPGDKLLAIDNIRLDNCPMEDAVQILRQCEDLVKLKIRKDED
Chain of FRMPD2_3, Q68DX3 (Q68DX3 1073-1166): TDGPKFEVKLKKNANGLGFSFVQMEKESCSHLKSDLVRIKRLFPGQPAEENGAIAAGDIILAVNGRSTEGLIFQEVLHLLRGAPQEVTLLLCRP
Chain of GRIP2_6, Q9C0E4 (Q9C0E4 648-740): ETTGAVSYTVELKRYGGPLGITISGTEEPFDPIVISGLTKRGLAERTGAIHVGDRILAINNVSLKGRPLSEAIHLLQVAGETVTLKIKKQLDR
Chain of Inadl_1, Q8NI35 (Q8NI35 113-229): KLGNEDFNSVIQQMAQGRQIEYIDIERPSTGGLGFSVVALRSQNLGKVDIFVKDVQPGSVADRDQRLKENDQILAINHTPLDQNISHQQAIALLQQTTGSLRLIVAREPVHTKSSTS
Chain of TJP1_3, Q07157 (Q07157 416-512): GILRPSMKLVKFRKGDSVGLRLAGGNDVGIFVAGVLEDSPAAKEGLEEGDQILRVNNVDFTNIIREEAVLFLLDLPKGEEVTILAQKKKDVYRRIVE
Chain of HTRA1, Q92743 (Q92743 360-477): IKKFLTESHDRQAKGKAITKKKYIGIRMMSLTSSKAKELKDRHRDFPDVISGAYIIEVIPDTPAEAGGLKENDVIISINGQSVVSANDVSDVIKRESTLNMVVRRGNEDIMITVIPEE
Chain of NHERF4_2, Q86UT5 (Q86UT5 220-308): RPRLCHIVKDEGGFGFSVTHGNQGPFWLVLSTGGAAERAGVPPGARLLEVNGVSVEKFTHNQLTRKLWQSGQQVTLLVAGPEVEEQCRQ
Chain of MAGI2_2, Q86UL8 (Q86UL8 410-522): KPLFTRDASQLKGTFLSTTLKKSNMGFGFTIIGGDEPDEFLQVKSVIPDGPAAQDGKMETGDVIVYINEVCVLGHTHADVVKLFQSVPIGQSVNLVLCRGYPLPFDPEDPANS
Chain of ARHGEF12, Q9NZN5-2 (Q9NZN5 other isoform, or with tags, fused parts or gaps): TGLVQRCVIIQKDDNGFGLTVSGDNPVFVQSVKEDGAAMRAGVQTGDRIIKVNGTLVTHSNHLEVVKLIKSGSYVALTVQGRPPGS

pKd (Inadl_1, Q8NI35; [1]): below the threshold | pKd (ARHGEF12, Q9NZN5-2; [1]): below the threshold | pKd (DLG3_3, Q92796; [1]): below the threshold | pKd (MPP7, Q5T2T1; [1]): below the threshold | pKd (ARHGEF11, O15085; [1]): 3.61 | pKd (LRRC7, Q96NW7; [1]): below the threshold | pKd (GRIP2_6, Q9C0E4; [1]): below the threshold | pKd (FRMPD2_3, Q68DX3; [1]): below the threshold | pKd (MPDZ_5, O75970; [1]): below the threshold | pKd (TJP1_3, Q07157; [1]): below the threshold | pKd (RADIL, Q96JH8; [1]): 4.23 | pKd (Inadl_6, Q8NI35; [1]): 3.88 | pKd (DLG3_2, Q92796; [1]): 4.72 | pKd (HTRA1, Q92743; [1]): 4.41 | pKd (MAGI2_2, Q86UL8; [1]): 4.24 | pKd (SNX27, Q96L92; [1]): 5.42 | pKd (DFNB31_1, Q9P202; [1]): below the threshold | pKd (GRIP2_5, Q9C0E4; [1]): below the threshold | pKd (CARD11, Q9BXL7; [1]): below the threshold | pKd (RHPN1, Q8TCX5; [1]): 4.17 | pKd (GRIP1_3, Q9Y3R0; [1]): below the threshold | pKd (NHERF4_2, Q86UT5; [1]): below the threshold | pKd (SYNJ2BP, P57105; [1]): 4.74 | pKd (SIPA1L2, Q9P2F8; [1]): below the threshold
Binder: DPAESMESLV [PTPRG, P23470]

pKd (Inadl_1, Q8NI35; [2]): below the threshold | pKd (ARHGEF12, Q9NZN5-2; [2]): 3.99 | pKd (DLG3_3, Q92796; [2]): 4.41 | pKd (MPP7, Q5T2T1; [2]): below the threshold | pKd (ARHGEF11, O15085; [2]): below the threshold | pKd (LRRC7, Q96NW7; [2]): 3.73 | pKd (GRIP2_6, Q9C0E4; [2]): below the threshold | pKd (FRMPD2_3, Q68DX3; [2]): below the threshold | pKd (MPDZ_5, O75970; [2]): below the threshold | pKd (TJP1_3, Q07157; [2]): below the threshold | pKd (RADIL, Q96JH8; [2]): below the threshold | pKd (Inadl_6, Q8NI35; [2]): below the threshold | pKd (DLG3_2, Q92796; [2]): 4.04 | pKd (HTRA1, Q92743; [2]): below the threshold | pKd (MAGI2_2, Q86UL8; [2]): 4.39 | pKd (SNX27, Q96L92; [2]): 4.31 | pKd (DFNB31_1, Q9P202; [2]): 4.35 | pKd (GRIP2_5, Q9C0E4; [2]): below the threshold | pKd (CARD11, Q9BXL7; [2]): below the threshold | pKd (RHPN1, Q8TCX5; [2]): 3.7 | pKd (GRIP1_3, Q9Y3R0; [2]): below the threshold | pKd (NHERF4_2, Q86UT5; [2]): below the threshold | pKd (SYNJ2BP, P57105; [2]): 5.2 | pKd (SIPA1L2, Q9P2F8; [2]): below the threshold
Binder: QPRTWLQSPV [RTKN, Q9BST9]

pKd (Inadl_1, Q8NI35; [2]): below the threshold | pKd (ARHGEF12, Q9NZN5-2; [2]): 4.27 | pKd (DLG3_3, Q92796; [2]): 3.97 | pKd (MPP7, Q5T2T1; [2]): below the threshold | pKd (ARHGEF11, O15085; [2]): 4.3 | pKd (LRRC7, Q96NW7; [2]): 4.13 | pKd (GRIP2_6, Q9C0E4; [2]): below the threshold | pKd (FRMPD2_3, Q68DX3; [2]): 3.9 | pKd (MPDZ_5, O75970; [2]): 3.63 | pKd (TJP1_3, Q07157; [2]): below the threshold | pKd (RADIL, Q96JH8; [2]): 4.89 | pKd (Inadl_6, Q8NI35; [2]): 4.29 | pKd (DLG3_2, Q92796; [2]): 4.92 | pKd (HTRA1, Q92743; [2]): 4.28 | pKd (MAGI2_2, Q86UL8; [2]): 4.52 | pKd (SNX27, Q96L92; [2]): 5.63 | pKd (DFNB31_1, Q9P202; [2]): 3.88 | pKd (GRIP2_5, Q9C0E4; [2]): below the threshold | pKd (CARD11, Q9BXL7; [2]): below the threshold | pKd (RHPN1, Q8TCX5; [2]): 4.9 | pKd (GRIP1_3, Q9Y3R0; [2]): below the threshold | pKd (NHERF4_2, Q86UT5; [2]): below the threshold | pKd (SYNJ2BP, P57105; [2]): 5.22 | pKd (SIPA1L2, Q9P2F8; [2]): below the threshold
Binder: QDEKVKESYV [ABCA1, O95477]

— PMC9482650, “Quantitative fragmentomics allow affinity mapping of interactomes” (Nature Communications, 2022)
